# Test results taken from publication doi:10.1101/2022.07.26.501514, “Structural plasticity of Atg18 oligomers: organization of assembled tubes and scaffolds at the isolation membrane” (bioRxiv, 2022).
# B1: Atg18-PR72AA (Atg2 binding mutant) (natural protein, Saccharomyces cerevisiae, UniProt P43601 1-500, looked up)
# chain: MSDSSPTINFINFNQTGTCISLGTSKGFKIFNCEPFGKFYSEDSGGYAIVEMLFSTSLLALVGIGDQPALSAARLRIINTKKHSIICEVTFPTSILSVKMNKSRLVVLLQEQIYIYDINTMRLLHTIETNPNPRGLMAMSPSVANSYLVYPSPPKVINSEIKAHATTNNITLSVGGNTETSFKRDQQDAGHSDISDLDQYSSFTKRDDADPTSSNGGNSSIIKNGDVIVFNLETLQPTMVIEAHKGEIAAMAISFDGTLMATASDKGTIIRVFDIETGDKIYQFRRGTYATRIYSISFSEDSQYLAVTGSSKTVHIFKLGHSMSNNKLDSDDSNMEEAAADDSSLDTTSIDALSDEENPTRLAREPYVDASRKTMGRMIRYSSQKLSRRAARTLGQIFPIKVTSLLESSRHFASLKLPVETNSHVMTISSIGSPIDIDTSEYPELFETGNSASTESYHEPVMKMVPIRVVSSDGYLYNFVMDPERGGDCLILSQYSILMD
# notes: Atg18, Saccharomyces cerevisiae, Uniprot ID P43601, with P72 and R73 changed to alanines; also called Atg18-P72R73; Atg18-PR72R73; source: E. coli BL21(DE3), purified (Ni-NTA, TEV cleavage, second Ni-NTA, gel filtration Superdex 200); not shown: 6xHis, N-terminal, cleaved
# Biological target: the molecule itself
# Experiment: cryo-EM structure; helical tubes of Atg18, 20 uM in tube buffer (20 mM HEPES, 100 mM KAc, 1 mM DTT, pH 7.2); segmented helical reconstruction, rise 19.4 A, rotation 70.0 degrees
protein,measurement,value
B1,binding result,binds
